# Results: IntAct's records for PubMed 10743655
# B1: Zinc finger protein CONSTANS (Arabidopsis thaliana (Mouse-ear cress)), Q39057 (parent)
# chain: MLKQESNDIGSGENNRARPCDTCRSNACTVYCHADSAYLCMSCDAQVHSANRVASRHKRVRVCESCERAPAAFLCEADDASLCTACDSEVHSANPLARRHQRVPILPISGNSFSSMTTTHHQSEKTMTDPEKRLVVDQEEGEEGDKDAKEVASWLFPNSDKNNNNQNNGLLFSDEYLNLVDYNSSMDYKFTGEYSQHQQNCSVPQTSYGGDRVVPLKLEESRGHQCHNQQNFQFNIKYGSSGTHYNDNGSINHNAYISSMETGVVPESTACVTTASHPRTPKGTVEQQPDPASQMITVTQLSPMDREARVLRYREKRKTRKFEKTIRYASRKAYAEIRPRVNGRFAKREIEAEEQGFNTMLMYNTGYGIVPSF
# partner: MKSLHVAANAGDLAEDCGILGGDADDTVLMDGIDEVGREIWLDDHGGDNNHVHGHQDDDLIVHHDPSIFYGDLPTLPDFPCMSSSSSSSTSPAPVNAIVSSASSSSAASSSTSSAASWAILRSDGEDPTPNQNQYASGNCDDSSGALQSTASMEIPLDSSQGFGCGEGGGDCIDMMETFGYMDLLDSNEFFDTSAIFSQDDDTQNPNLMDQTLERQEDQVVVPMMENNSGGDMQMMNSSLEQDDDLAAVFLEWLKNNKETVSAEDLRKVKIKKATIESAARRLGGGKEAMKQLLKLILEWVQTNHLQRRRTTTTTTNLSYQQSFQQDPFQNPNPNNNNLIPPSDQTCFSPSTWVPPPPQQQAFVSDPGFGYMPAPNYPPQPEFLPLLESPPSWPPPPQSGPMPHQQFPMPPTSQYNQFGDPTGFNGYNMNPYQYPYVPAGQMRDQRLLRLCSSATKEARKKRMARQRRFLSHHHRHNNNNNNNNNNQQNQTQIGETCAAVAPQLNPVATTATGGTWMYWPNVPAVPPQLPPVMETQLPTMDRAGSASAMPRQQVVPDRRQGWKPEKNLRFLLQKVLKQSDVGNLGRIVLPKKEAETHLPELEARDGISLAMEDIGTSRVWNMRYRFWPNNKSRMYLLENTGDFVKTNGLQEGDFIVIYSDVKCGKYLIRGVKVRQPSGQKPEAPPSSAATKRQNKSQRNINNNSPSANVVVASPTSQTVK
# Variants of: B1
# Conditions: with abi3_arath ABI3, Q01593
row,effect of a mutation on the interaction,Variant
1,decreasing interaction strength,R340Q
2,decreasing interaction,P339L
